According to article PMC8933513 (2022):
pKd: −log10 of the molar value. Where “and” joins values, the source holds several entries; their conditions need not be identical. Equal entries are not always repeated.

Experiments:
Assay in all cases: SPR; BIAcore X-100, room temperature; hAPN/pAPN WT or mutant immobilised on CM5 chips via amine coupling; serially diluted PDCoV RBD WT or mutant flowed over in HEPES buffer (0.01 M HEPES, 0.15 M NaCl, 0.5% surfactant P20, 3 mM EDTA, pH 7.4); steady-state affinity model; each of two experiments listed
[1] = target: human aminopeptidase N ectodomain Y316A (human) (UniProt P15144)
Sequence of human aminopeptidase N ectodomain Y316A (human) (P15144 62-963 Y316A): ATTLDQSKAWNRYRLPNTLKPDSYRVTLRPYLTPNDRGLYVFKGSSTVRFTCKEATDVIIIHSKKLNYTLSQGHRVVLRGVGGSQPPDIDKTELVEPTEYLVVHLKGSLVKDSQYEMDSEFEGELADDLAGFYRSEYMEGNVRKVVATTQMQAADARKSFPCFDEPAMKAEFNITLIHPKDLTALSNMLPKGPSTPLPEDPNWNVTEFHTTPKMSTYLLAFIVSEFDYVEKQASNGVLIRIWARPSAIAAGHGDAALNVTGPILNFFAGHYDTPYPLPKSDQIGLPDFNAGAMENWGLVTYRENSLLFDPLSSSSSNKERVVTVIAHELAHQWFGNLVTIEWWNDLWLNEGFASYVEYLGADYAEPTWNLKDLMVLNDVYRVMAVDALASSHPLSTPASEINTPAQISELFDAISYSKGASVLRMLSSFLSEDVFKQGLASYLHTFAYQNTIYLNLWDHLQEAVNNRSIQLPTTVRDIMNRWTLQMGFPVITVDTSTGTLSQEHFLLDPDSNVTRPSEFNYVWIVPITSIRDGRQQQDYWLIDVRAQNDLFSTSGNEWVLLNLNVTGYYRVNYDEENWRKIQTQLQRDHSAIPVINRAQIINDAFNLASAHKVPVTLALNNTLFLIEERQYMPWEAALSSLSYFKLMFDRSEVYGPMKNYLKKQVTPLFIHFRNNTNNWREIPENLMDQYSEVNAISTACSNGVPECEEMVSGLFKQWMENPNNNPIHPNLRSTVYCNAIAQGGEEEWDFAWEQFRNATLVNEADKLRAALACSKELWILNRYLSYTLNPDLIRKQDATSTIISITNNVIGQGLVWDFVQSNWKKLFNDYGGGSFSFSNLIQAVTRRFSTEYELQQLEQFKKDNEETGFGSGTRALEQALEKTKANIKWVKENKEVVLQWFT

[2] = target: porcine aminopeptidase N ectodomain E421A (pig) (UniProt P15145)
Sequence of porcine aminopeptidase N ectodomain E421A (pig) (P15145 58-961 E421A): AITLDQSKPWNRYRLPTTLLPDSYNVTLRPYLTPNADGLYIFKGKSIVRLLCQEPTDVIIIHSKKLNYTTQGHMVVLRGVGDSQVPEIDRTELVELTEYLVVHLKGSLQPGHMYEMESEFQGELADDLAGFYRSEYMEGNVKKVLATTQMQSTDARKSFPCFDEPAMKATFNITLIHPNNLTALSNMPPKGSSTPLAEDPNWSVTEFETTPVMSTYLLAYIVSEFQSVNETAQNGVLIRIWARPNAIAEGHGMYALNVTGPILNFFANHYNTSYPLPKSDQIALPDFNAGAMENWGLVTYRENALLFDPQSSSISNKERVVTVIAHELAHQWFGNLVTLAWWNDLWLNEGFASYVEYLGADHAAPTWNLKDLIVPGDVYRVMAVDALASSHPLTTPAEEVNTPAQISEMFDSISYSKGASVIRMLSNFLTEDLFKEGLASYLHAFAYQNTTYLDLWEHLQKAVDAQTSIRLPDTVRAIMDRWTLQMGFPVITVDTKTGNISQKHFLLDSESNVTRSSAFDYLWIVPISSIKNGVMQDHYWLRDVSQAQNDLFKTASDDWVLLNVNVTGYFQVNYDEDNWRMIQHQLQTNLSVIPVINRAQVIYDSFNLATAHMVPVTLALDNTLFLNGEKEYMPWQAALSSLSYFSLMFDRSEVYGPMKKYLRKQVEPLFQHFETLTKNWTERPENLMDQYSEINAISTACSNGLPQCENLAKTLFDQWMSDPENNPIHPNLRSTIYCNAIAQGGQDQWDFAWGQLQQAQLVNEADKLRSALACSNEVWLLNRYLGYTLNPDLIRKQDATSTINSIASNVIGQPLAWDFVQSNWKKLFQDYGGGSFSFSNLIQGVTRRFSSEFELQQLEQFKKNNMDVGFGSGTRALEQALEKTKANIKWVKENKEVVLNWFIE

[3] = target: human aminopeptidase N ectodomain K379A (human) (UniProt P15144)
Sequence of human aminopeptidase N ectodomain K379A (human) (P15144 62-963 K379A): as the sequence (P15144 62-963 Y316A) above, with A255Y, K318A counted along it

[4] = target: porcine aminopeptidase N ectodomain, wild type (pig) (UniProt P15145)
Sequence of porcine aminopeptidase N ectodomain, wild type (pig) (P15145 58-961): as the sequence (P15145 58-961 E421A) above, with A364E counted along it

[5] = target: porcine aminopeptidase N ectodomain W424A (pig) (UniProt P15145)
Sequence of porcine aminopeptidase N ectodomain W424A (pig) (P15145 58-961 W424A): as the sequence (P15145 58-961 E421A) above, with A364E, W367A counted along it

[6] = target: human aminopeptidase N ectodomain E745A (human) (UniProt P15144)
Sequence of human aminopeptidase N ectodomain E745A (human) (P15144 62-963 E745A): as the sequence (P15144 62-963 Y316A) above, with A255Y, E684A counted along it

[7] = target: human aminopeptidase N ectodomain H789A (human) (UniProt P15144)
Sequence of human aminopeptidase N ectodomain H789A (human) (P15144 62-963 H789A): as the sequence (P15144 62-963 Y316A) above, with A255Y, H728A counted along it

[8] = target: human aminopeptidase N ectodomain W429A (human) (UniProt P15144)
Sequence of human aminopeptidase N ectodomain W429A (human) (P15144 62-963 W429A): as the sequence (P15144 62-963 Y316A) above, with A255Y, W368A counted along it

[9] = target: human aminopeptidase N ectodomain E426A (human) (UniProt P15144)
Sequence of human aminopeptidase N ectodomain E426A (human) (P15144 62-963 E426A): as the sequence (P15144 62-963 Y316A) above, with A255Y, E365A counted along it

[10] = target: human aminopeptidase N ectodomain E742A (human) (UniProt P15144)
Sequence of human aminopeptidase N ectodomain E742A (human) (P15144 62-963 E742A): as the sequence (P15144 62-963 Y316A) above, with A255Y, E681A counted along it

[11] = target: human aminopeptidase N ectodomain, wild type (human) (UniProt P15144)
Sequence of human aminopeptidase N ectodomain, wild type (human) (P15144 62-963): as the sequence (P15144 62-963 Y316A) above, with A255Y counted along it

Question: Which results are given for “PDCoV RBD (receptor binding domain of the porcine deltacoronavirus spike protein), wild type (domain or fragment)”?
Answer: pKd [1]: 4.45 and 4.41; pKd [2]: 3.99 and 3.83; pKd [3]: 3.29 and 3.43; pKd [4]: 4.38 and 4.33; pKd [5]: 3.95 and 3.92; pKd [6]: 5.50 and 5.52; pKd [7]: 5.19 and 5.22; pKd [8]: 3.80 and 4.01; pKd [9]: 3.52 and 3.44; pKd [10]: 4.85 and 4.88; pKd [11]: 5.42 and 5.44
